In experiment [1] the target is T1, human FcγRIIaR extracellular domain, C-terminal His-tag (human, UniProt P12318 34-217).
T1 construct: also called human FcγRIIa (type R); FcgRIIaR
T1 chain: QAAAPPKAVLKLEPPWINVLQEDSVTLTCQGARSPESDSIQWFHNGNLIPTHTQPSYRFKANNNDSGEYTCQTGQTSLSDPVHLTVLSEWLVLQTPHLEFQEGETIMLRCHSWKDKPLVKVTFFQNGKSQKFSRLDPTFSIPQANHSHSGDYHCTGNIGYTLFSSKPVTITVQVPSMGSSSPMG
Description: SPR 25C; FcgR bound per captured antibody, relative to parent B3. Here is the method:
(§1) These Fc variants are referred to as B3 variants. B3 variants were expressed and the binding of protein-A purified antibodies to each FcγR (FcγRIIa type H. FcγRIIa type R, FcγRIIb, and FcγRIIIaF) was comprehensively evaluated as follows. Analysis of interaction between each altered antibody and the Fcγ receptor prepared as mentioned above was carried out using BIACORE® T100 (GE Healthcare), BIACORE® T200 (GE Healthcare), BIACORE® A100, or BIACORE® 4000. HBS-EP+(GE Healthcare) was used as the running buffer, and the measurement temperature was set to 25° C. Chips produced by immobilizing Protein A (Thermo Scientific), Protein A/G (Thermo Scientific), or Protein L (ACTIGEN or BioVision) by the amine coupling method to a Series S sensor Chip CM5 or CM4 (GE Healthcare) were used. After capturing of antibodies of interest onto these sensor chips, an Fcγ receptor diluted with the running buffer was allowed to interact, the amount bound to an antibody was measured. However, since the amount of Fcγ receptor bound depends on the amount of the captured antibodies, the amount of Fcγ receptor bound was divided by the amount of each antibody captured to obtain corrected values, and these values were compared. Furthermore, antibodies captured onto the chips were washed by 10 mM glycine-HCl pH1.5, and the chips were regenerated and used repeatedly. […] The value obtained by multiplying this value by 100 was used as an indicator of the relative FcγR-binding activity of each variant.

In experiment [2] the target is T2, human FcγRIIaH extracellular domain, C-terminal His-tag (human, UniProt P12318 34-217).
T2 construct: also called human FcγRIIa (type H); FcgRIIaH
T2 sequence: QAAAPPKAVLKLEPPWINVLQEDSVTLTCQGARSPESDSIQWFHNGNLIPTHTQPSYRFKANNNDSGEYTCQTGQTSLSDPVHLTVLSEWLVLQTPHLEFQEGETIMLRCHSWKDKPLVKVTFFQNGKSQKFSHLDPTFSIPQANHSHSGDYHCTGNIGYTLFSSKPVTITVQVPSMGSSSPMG
The description is as above. Here is the method:
as §1

B1: GpH7-B3 variant A327N/GpL16-k0 (antibody, human IgG1, kappa)
heavy: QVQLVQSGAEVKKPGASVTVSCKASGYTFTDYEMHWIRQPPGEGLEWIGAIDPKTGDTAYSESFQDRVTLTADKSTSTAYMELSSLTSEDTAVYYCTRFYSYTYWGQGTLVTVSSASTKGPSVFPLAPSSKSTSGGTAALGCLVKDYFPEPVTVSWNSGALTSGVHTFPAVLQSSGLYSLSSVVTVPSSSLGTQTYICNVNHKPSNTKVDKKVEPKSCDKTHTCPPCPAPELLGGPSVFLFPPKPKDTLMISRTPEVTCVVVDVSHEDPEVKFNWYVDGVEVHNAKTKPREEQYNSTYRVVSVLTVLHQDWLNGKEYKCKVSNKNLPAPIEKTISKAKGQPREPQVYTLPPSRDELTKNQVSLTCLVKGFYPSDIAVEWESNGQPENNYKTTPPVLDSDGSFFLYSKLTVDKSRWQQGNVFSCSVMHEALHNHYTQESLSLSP
light: DIVMTQSPLSLPVTPGEPASISCQASESLVHSNRNTYLHWYLQKPGQSPQLLIYKVSNRFSGVPDRFSGSGSGTDFTLKISRVEAEDVGVYYCSQNTHVPPTFGQGTKVEIERTVAAPSVFIFPPSDEQLKSGTASVVCLLNNFYPREAKVQWKVDNALQSGNSQESVTEQDSKDSTYSLSSTLTLSKADYEKHKVYACEVTHQGLSSPVTKSFNRGEC
In the case of B1, the “Binding to human FcgRs (parent B3 = 100)” value amounted to 48 parent B3 = 100 in experiment [1] and 95 parent B3 = 100 in experiment [2].

B2: GpH7-B3 variant A330R/GpL16-k0 (antibody, human IgG1, kappa)
heavy: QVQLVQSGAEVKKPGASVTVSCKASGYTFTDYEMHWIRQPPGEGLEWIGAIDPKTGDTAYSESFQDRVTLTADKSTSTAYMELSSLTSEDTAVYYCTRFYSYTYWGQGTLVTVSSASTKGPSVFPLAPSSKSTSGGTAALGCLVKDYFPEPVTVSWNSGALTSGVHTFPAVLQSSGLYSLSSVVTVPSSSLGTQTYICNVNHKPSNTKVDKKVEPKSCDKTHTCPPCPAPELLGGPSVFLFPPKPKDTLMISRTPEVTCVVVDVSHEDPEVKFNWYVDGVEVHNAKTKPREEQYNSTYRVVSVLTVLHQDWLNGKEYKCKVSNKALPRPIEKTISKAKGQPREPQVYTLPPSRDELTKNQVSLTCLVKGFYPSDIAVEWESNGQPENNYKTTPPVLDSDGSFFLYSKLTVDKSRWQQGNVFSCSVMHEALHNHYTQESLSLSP
light: DIVMTQSPLSLPVTPGEPASISCQASESLVHSNRNTYLHWYLQKPGQSPQLLIYKVSNRFSGVPDRFSGSGSGTDFTLKISRVEAEDVGVYYCSQNTHVPPTFGQGTKVEIERTVAAPSVFIFPPSDEQLKSGTASVVCLLNNFYPREAKVQWKVDNALQSGNSQESVTEQDSKDSTYSLSSTLTLSKADYEKHKVYACEVTHQGLSSPVTKSFNRGEC
Take B2: the “Binding to human FcgRs (parent B3 = 100)” value in experiment [1] worked out at 123 parent B3 = 100; in experiment [2], 116 parent B3 = 100.

B3: GpH7-B3 variant P238E/GpL16-k0 (antibody, human IgG1, kappa)
heavy: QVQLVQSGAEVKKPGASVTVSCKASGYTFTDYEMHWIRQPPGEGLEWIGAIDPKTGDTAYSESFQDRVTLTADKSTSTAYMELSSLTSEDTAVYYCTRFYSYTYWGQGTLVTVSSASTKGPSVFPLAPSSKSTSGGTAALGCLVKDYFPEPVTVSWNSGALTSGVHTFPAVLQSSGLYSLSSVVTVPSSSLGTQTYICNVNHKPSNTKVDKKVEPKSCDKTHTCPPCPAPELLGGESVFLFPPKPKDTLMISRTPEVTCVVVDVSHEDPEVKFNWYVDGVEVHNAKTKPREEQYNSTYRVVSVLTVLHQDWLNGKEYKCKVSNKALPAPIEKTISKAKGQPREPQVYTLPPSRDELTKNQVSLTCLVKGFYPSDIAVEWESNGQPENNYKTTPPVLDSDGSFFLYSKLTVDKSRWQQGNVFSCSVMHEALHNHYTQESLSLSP
light: DIVMTQSPLSLPVTPGEPASISCQASESLVHSNRNTYLHWYLQKPGQSPQLLIYKVSNRFSGVPDRFSGSGSGTDFTLKISRVEAEDVGVYYCSQNTHVPPTFGQGTKVEIERTVAAPSVFIFPPSDEQLKSGTASVVCLLNNFYPREAKVQWKVDNALQSGNSQESVTEQDSKDSTYSLSSTLTLSKADYEKHKVYACEVTHQGLSSPVTKSFNRGEC
Regarding B3, the “Binding to human FcgRs (parent B3 = 100)” value worked out at 2 parent B3 = 100 in experiment [1] and 21 parent B3 = 100 in experiment [2].

B4: GpH7-B3 variant P271E/GpL16-k0 (antibody, human IgG1, kappa)
heavy: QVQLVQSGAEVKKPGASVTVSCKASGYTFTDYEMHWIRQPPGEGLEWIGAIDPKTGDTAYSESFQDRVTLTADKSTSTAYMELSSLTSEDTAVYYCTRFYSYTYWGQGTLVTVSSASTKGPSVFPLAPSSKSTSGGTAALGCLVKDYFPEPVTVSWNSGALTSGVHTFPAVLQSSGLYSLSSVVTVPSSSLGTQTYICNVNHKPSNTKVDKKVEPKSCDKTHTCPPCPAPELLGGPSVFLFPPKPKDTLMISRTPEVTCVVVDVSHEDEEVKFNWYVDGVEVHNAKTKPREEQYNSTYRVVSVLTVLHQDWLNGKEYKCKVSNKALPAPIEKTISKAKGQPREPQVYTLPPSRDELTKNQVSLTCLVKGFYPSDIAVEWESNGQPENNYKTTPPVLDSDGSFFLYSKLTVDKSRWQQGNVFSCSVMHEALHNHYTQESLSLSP
light: DIVMTQSPLSLPVTPGEPASISCQASESLVHSNRNTYLHWYLQKPGQSPQLLIYKVSNRFSGVPDRFSGSGSGTDFTLKISRVEAEDVGVYYCSQNTHVPPTFGQGTKVEIERTVAAPSVFIFPPSDEQLKSGTASVVCLLNNFYPREAKVQWKVDNALQSGNSQESVTEQDSKDSTYSLSSTLTLSKADYEKHKVYACEVTHQGLSSPVTKSFNRGEC
Regarding B4, the “Binding to human FcgRs (parent B3 = 100)” value in experiment [1] came out at 51 parent B3 = 100; in experiment [2], 90 parent B3 = 100.

B5: GpH7-B3 variant A330K/GpL16-k0 (antibody, human IgG1, kappa)
heavy: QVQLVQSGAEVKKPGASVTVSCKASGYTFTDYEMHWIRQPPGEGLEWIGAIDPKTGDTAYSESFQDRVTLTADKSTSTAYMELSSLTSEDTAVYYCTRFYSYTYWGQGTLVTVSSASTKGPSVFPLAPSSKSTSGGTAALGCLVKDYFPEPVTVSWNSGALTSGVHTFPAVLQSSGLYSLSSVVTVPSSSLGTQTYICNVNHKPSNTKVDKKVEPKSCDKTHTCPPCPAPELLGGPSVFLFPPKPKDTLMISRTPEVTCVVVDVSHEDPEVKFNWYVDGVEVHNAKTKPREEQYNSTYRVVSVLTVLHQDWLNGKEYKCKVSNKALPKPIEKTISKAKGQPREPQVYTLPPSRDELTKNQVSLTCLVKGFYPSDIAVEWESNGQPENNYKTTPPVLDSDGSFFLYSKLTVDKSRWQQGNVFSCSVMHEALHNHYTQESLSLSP
light: DIVMTQSPLSLPVTPGEPASISCQASESLVHSNRNTYLHWYLQKPGQSPQLLIYKVSNRFSGVPDRFSGSGSGTDFTLKISRVEAEDVGVYYCSQNTHVPPTFGQGTKVEIERTVAAPSVFIFPPSDEQLKSGTASVVCLLNNFYPREAKVQWKVDNALQSGNSQESVTEQDSKDSTYSLSSTLTLSKADYEKHKVYACEVTHQGLSSPVTKSFNRGEC
B5: the “Binding to human FcgRs (parent B3 = 100)” value in experiment [1] is 127 parent B3 = 100; in experiment [2] it was 121 parent B3 = 100.

B6: GpH7-B3 variant N325L/GpL16-k0 (antibody, human IgG1, kappa)
heavy: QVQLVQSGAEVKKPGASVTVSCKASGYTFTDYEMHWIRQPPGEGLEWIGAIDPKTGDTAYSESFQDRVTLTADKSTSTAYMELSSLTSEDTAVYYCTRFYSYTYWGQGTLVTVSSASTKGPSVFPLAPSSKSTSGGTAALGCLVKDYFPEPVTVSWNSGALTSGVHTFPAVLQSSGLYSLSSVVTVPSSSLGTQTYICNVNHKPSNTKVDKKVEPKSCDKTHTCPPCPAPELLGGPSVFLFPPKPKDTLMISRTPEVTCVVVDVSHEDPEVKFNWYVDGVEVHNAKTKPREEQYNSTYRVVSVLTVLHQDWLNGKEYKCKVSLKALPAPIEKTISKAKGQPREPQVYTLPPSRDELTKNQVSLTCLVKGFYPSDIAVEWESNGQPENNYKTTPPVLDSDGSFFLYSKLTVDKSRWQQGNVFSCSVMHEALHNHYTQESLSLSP
light: DIVMTQSPLSLPVTPGEPASISCQASESLVHSNRNTYLHWYLQKPGQSPQLLIYKVSNRFSGVPDRFSGSGSGTDFTLKISRVEAEDVGVYYCSQNTHVPPTFGQGTKVEIERTVAAPSVFIFPPSDEQLKSGTASVVCLLNNFYPREAKVQWKVDNALQSGNSQESVTEQDSKDSTYSLSSTLTLSKADYEKHKVYACEVTHQGLSSPVTKSFNRGEC
On to B6, for which the figures for the “Binding to human FcgRs (parent B3 = 100)” value in experiment [1] and in experiment [2] were 13 parent B3 = 100 and 93 parent B3 = 100, respectively.

These data come from patent US20200317768A1 (published 2020).
